Test results taken from patent publication US20260193348A1 (ANTENGENE BIOLOGICS, published 2026).
Where a chain is given by its changes, count along the chain named. Names may count otherwise.

B1: Bis-108+147-N37K.L (bispecific antibody)
heavy 1: not shown
heavy 2: EVQLVQSGAEVKKPGASVKVSCKASGYTFTSYVIHWVRQAPGQGLEWMGYFNPYNDGTKYNEEFKGRVTLTSDKSTSTAYMELRSLRSDDTAVYYCARGGVRRYFDVWGQGTTVTVSSASTKGPSVFPLAPSSKSTSGGTAALGCLVKDYFPEPVTVSWNSGALTSGVHTFPAVLQSSGLYSLSSVVTVPSSSLGTQTYICNVNHKPSNTKVDKKVEPKSCGGGGSGGGGSEVQLVQSGAEVKKPGSSVKVSCKASGYTFTSYWMHWVRQAPGQCLEWMGNINPSSGATNYNEKFKSRVTLTVDKSTSTAYMELSSLRSEDTAVYYCARDRSSQYYFDYWGQGTTVTVSSGGGGSGGGGSGGGGSGGGGSDIVMTQSPDSLAVSLGERATINCKSSQSLLNSRSRKKYLAWYQQKPGQPPKLLIYWASTRESGVPDRFSGSGSGTDFTLTISSLQAEDVAVYYCTQSYTLRTFGCGTKVEIKGGGGSGGGGSDKTHTCPPCPAPEAAGGPSVFLFPPKPKDTLMISRTPEVTCVVVDVSHEDPEVKFNWYVDGVEVHNAKTKPREEQYNSTYRVVSVLTVLHQDWLNGKEYKCKVSNKALPAPIEKTISKAKGQPREPQVCTLPPSREEMTKNQVSLSCAVKGFYPSDIAVEWESNGQPENNYKTTPPVLDSDGSFFLVSKLTVDKSRWQQGNVFSCSVMHEALHNHYTQKSLSLSPGK
light: DIQMTQSPSSLSASVGDRVTITCRASQDIGSNLNWLQQKPGKAIKRLIYATFGLDSGVPSRFSGSRSGTDFTLTISSLQPEDFATYYCQQYASFPYTFGGGTKVEIKRTVAAPSVFIFPPSDEQLKSGTASVVCLLNNFYPREAKVQWKVDNALQSGNSQESVTEQDSKDSTYSLSSTLTLSKADYEKHKVYACEVTHQGLSSPVTKSFNRGEC
notes: Fab-scFv-Fab format
B2: Bis-108+147-S32R.L (bispecific antibody)
heavy 1: not shown
heavy 2: B1 heavy 2 with S402R, K407N
light: B1 light
notes: Fab-scFv-Fab format
B3: Bis-108+147-R33A.L (bispecific antibody)
heavy 1: not shown
heavy 2: B1 heavy 2 with R403A, K407N
light: B1 light
notes: Fab-scFv-Fab format
B4: Bis-108+147-S31R.H (bispecific antibody)
heavy 1: not shown
heavy 2: B1 heavy 2 with S262R, K407N
light: B1 light
notes: Fab-scFv-Fab format
B5: Bis-108+147-R35K.L (bispecific antibody)
heavy 1: not shown
heavy 2: B1 heavy 2 with R405K, K407N
light: B1 light
notes: Fab-scFv-Fab format
B6: Bis-40E9-L2H9 (bispecific antibody)
VH: EVQLVQSGAEVKKPGASVKVSCKASGYTFTSYVIHWVRQAPGQGLEWMGYFNPYNDGTKYNEEFKGRVTLTSDKSTSTAYMELRSLRSDDTAVYYCARGGVRRYFDVWGQGTTVTVSS
VL: DIQMTQSPSSLSASVGDRVTITCRASQDIGSNLNWLQQKPGKAIKRLIYATFGLDSGVPSRFSGSRSGTDFTLTISSLQPEDFATYYCQQYASFPYTFGGGTKVEIK
scFv: EVQLVQSGAEVKKPGSSVKVSCKASGYTFSSYVIHWVRQAPGQCLEWMGYINPYSDVIKYNEKFKGRVTLTSDKSTSTAYMELSSLRSEDTAVYYCARESFYSYDGFAYWGQGTLVTVSSGGGGSGGGGSGGGGSGGGGSEIVLTQSPDFQSVTPKEKVTITCSASSSVSYMHWYQQKPDQSPKRLIYDTSKLASGVPSRFSGSGSGTDFTLTINSLEAEDAATYYCQQWSSNPPTFGCGTKVEIK
notes: L234A/L235A
B7: Bis-40E9-L2H10 (bispecific antibody)
VH: B6 VH
VL: B6 VL
scFv: B6 scFv with S55N, E99D, F101Y, D105E, G106A
notes: L234A/L235A
B8: Bis-40E9-L2H11 (bispecific antibody)
VH: B6 VH
VL: B6 VL
scFv: B6 scFv with S55N, E99D, F101Y, D105R, G106A
notes: L234A/L235A
B9: Bis-40E9-L2H6 (bispecific antibody)
heavy 1: not shown
heavy 2: EVQLVQSGAEVKKPGASVKVSCKASGYTFTSYVIHWVRQAPGQGLEWMGYFNPYNDGTKYNEEFKGRVTLTSDKSTSTAYMELRSLRSDDTAVYYCARGGVRRYFDVWGQGTTVTVSSASTKGPSVFPLAPSSKSTSGGTAALGCLVKDYFPEPVTVSWNSGALTSGVHTFPAVLQSSGLYSLSSVVTVPSSSLGTQTYICNVNHKPSNTKVDKKVEPKSCGGGGSGGGGSEVQLVQSGAEVKKPGSSVKVSCKASGYTFSSYVIHWVRQAPGQCLEWMGYINPYNDVIKYNEKFKGRVTLTSDKSTSTAYMELSSLRSEDTAVYYCARESFSSYDGFAYWGQGTLVTVSSGGGGSGGGGSGGGGSGGGGSEIVLTQSPDFQSVTPKEKVTITCSASSSVSYMHWYQQKPDQSPKRLIYDTSKLASGVPSRFSGSGSGTDFTLTINSLEAEDAATYYCQQWSSNPPTFGCGTKVEIKGGGGSGGGGSDKTHTCPPCPAPEAAGGPSVFLFPPKPKDTLMISRTPEVTCVVVDVSHEDPEVKFNWYVDGVEVHNAKTKPREEQYNSTYRVVSVLTVLHQDWLNGKEYKCKVSNKALPAPIEKTISKAKGQPREPQVCTLPPSREEMTKNQVSLSCAVKGFYPSDIAVEWESNGQPENNYKTTPPVLDSDGSFFLVSKLTVDKSRWQQGNVFSCSVMHEALHNHYTQKSLSLSPGK
light: B1 light
notes: Fab-scFv-Fab format with LALA mutations
B10: Bis-40E9-L2H9 (bispecific antibody)
heavy 1: not shown
heavy 2: B9 heavy 2 with N286S, S333Y
light: B1 light
notes: as for B9
B11: Bis-40E9-L2H10 (bispecific antibody)
heavy 1: not shown
heavy 2: B9 heavy 2 with E330D, F332Y, S333Y, D336E, G337A
light: B1 light
notes: Fab-scFv-Fab format with LALA mutations; copies: 1 + 1 + 2
B12: Bis-40E9-L5H7 (bispecific antibody)
heavy 1: not shown
heavy 2: B9 heavy 2 with Y285G, D287G, E330D, F332Y, S462R, N464S
light: B1 light
notes: as for B11

Molecular target: T1, GPRC5D on MM.1S cells (human, UniProt Q9NZD1 1-345)
T1 construct: whole, on cells; MM.1S is called a GPRC5D positive expressed cell line and human multiple myeloma cells; also called G-protein coupled receptor family C group 5 member D
T1 sequence (Q9NZD1 whole entry): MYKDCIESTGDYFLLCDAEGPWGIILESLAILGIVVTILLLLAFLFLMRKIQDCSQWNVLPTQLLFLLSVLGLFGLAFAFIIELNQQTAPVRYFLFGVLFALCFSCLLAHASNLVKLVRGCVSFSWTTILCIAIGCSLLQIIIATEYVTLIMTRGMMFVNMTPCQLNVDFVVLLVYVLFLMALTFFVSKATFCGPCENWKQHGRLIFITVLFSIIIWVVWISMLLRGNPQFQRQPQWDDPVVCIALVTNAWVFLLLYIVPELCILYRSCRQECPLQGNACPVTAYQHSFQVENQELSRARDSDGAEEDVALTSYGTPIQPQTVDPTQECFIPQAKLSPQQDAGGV
Test: FACS on MM.1S cells
Method: The binding affinities of the generated humanized Fab-scFv-Fab bispecific antibodies were determined by FACS analysis. […] (a) Jurkat cells were washed by Staining Buffer (PBS+1% BSA) in round bottom 96-well plate. [0833] (b) Antibody dilutions and cells were added to each well, incubated at 4 degrees for 1 hour. [0834] (c) Cells were spined down at 300 g for 3 minutes, and the supernatants were discarded. [0835] (d) Cells were washed with Staining Buffer. […] (e) Step (d) was repeated and the cells were incubated for 0.5 hours at 4 degrees with secondary antibody in Staining Buffer. [0837] (f) After incubation, step (d)-(e) were repeated. […] (g) Staining Buffer was added and fluorescence signals were recorded by flow cytometry.
The binding affinities of the generated humanized Fab-scFv-Fab bispecific antibodies were determined by FACS analysis. The ATG-Bis-40E9 was used as positive control and hIgG1 isotype was used as negative control. The protocol for FACS analysis is identical to that described in Example 3.2, except that MM.1S cells were used in this example.

| Binder | EC50 [nM] | Top signal [MFI] |
| --- | --- | --- |
| B1 | 2.15 | 1900 |
| B2 | 1.76 | 2050 |
| B3 | 1.87 | 1650 |
| B4 | 1.5 | 2030 |
| B5 | 1.58 | 1740 |

Molecular target: T1, GPRC5D on MM.1S cells
Test: cell-based or functional assay

| Binder | EC50, Jurkat-NFAT-Luciferase assay in the presence of MM.1S cells [nM] | Top RLU, Jurkat-NFAT-Luciferase assay in the presence of MM.1S cells [RLU] |
| --- | --- | --- |
| B1 | 0.15 | 424 |
| B2 | 0.32 | 406 |
| B3 | 2.48 | 287 |
| B4 | 0.25 | 334 |
| B5 | 0.47 | 408 |

Molecular target: T1, GPRC5D on MM.1S cells
Test: cell-based or functional assay
Remark: another data set of the same source

| Binder | IC50 of T-cell dependent cytotoxicity on MM.1S cells [nM] | Top (%) target cell killing, MM.1S cells [%] |
| --- | --- | --- |
| B1 | 1490 |  |
| B2 | 0.54 | 99 |
| B3 | 1.51 | 45.1 |
| B4 | 4.43 | 159 |
| B5 | 0.61 | 99.9 |

Molecular target: T2, CD3 on T cells / Jurkat cells (human, UniProt P07766 23-207; P04234 22-171; P09693 23-182)
T2 construct: whole, on cells; Native CD3 complex on CD3+ T cells isolated from normal donors or on Jurkat cells; also called human CD3; CD3+ T cells
T2 sequence (P07766 23-207, chain 1 of 3): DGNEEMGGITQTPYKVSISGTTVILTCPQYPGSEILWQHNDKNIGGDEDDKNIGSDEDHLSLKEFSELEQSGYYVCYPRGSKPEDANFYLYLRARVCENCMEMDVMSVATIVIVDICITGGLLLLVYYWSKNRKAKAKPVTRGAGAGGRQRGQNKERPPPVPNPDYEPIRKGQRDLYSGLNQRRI
T2 sequence (P04234 22-171, chain 2 of 3): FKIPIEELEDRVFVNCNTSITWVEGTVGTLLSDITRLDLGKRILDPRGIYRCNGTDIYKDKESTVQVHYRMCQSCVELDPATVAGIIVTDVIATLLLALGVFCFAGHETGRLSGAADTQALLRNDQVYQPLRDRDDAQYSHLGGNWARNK
T2 sequence (P09693 23-182, chain 3 of 3): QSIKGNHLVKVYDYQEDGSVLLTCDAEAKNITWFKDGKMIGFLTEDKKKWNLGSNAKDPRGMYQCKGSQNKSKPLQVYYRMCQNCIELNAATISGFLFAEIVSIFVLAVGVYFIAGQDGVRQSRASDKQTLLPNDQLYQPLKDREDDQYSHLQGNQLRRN
Test: FACS on Jurkat cells

| Binder | binding result |
| --- | --- |
| B6 | binds |
| B7 | binds |
| B8 | binds |

Molecular target: T3, GPRC5D on multiple myeloma cells (human, UniProt Q9NZD1 1-345)
T3 construct: whole, on cells; Endogenous GPRC5D on multiple myeloma cell lines; also called G-protein coupled receptor family C group 5 member D; MM.1S, MOLP-8, L363, RPMI8226 cells
T3 sequence (Q9NZD1 whole entry): as the sequence (Q9NZD1 whole entry) above
Test: FACS on MM.1S cells

| Binder | binding result |
| --- | --- |
| B6 | binds |
| B7 | binds |
| B8 | binds |

Molecular target: T1, GPRC5D on MM.1S cells
Test: FACS on MM.1S cells
Remark: another data set of the same source
Method: To evaluate the binding affinity of the generated chimeric bispecific antibody to T cells, the isolated CD3⁺ T cells were stained by antibodies and the binding affinity was determined by FACS analysis. The protocol of FACS analysis is described as follows: [0785] (a) CD3⁺ T cells were isolated from normal donors. [0786] (b) The isolated CD3⁺ T cells were washed by Staining Buffer (PBS+1% BSA) in round bottom 96-well plate. […] (c) Antibody dilutions were added to each well and mixed with the CD3+ T cells, incubated at 4 degrees for 1 hour. […] (d) Cells were spined at 300 g for 3 minutes, then the supernatants were discarded. [0789] (e) Cells were washed with Staining Buffer. [0790] (f) Step (d) was repeated, and the cells were incubated with secondary antibody in Staining Buffer for 0.5 hours at 4 degrees. [0791] (g) After incubation, step (d)-(e) were repeated. [0792] (h) Cells were resuspended in Staining Buffer and fluorescence signals were recorded by flow cytometry.
The binding affinities of the generated humanized Fab-scFv-Fab bispecific antibodies to MM.1S were evaluated by FACS analysis. The protocol for FACS analysis is identical to that described in Example 1.2, except that MM.1S were used in this example.

| Binder | Ratio of EC50 (relative to ATG-Bis-40E9) [ratio] | Ratio of Top MFI (relative to ATG-Bis-40E9) [ratio] |
| --- | --- | --- |
| B9 | 0.824 | 0.877 |
| B10 | 0.926 | 0.874 |
| B11 | 1.15 | 1.02 |
| B12 | 1.14 | 0.989 |

Molecular target: T1, GPRC5D on MM.1S cells
Test: cell-based or functional assay
Remark: another data set of the same source

| Binder | Ratio of Top RLU (relative to ATG-Bis-40E9), luciferase assay on MM.1S [ratio] | Ratio of EC50 (relative to ATG-Bis-40E9), luciferase assay on MM.1S [ratio] |
| --- | --- | --- |
| B9 | 0.04 |  |
| B10 | 0.28 | 96.4 |
| B11 | 0.71 | 10.2 |
| B12 | 1.38 | 18 |

Molecular target: T1, GPRC5D on MM.1S cells
Test: cell-based or functional assay
Remark: another data set of the same source

| Binder | Ratio of Top cytotoxicity (relative to ATG-Bis-40E9), MM.1S cytotoxicity [ratio] | Ratio of IC50 (relative to ATG-Bis-40E9), MM.1S cytotoxicity [ratio] |
| --- | --- | --- |
| B9 | 0.06 |  |
| B10 | 0.87 | 87.7 |
| B11 | 0.96 | 18.4 |
| B12 | 0.99 | 9.82 |
